# Assays:
# Assay in all cases: cell-based or functional assay
# [1] = molecular target: human RXFP2 (human) (UniProt Q8WXD0)
# [2] = molecular target: human RXFP3 (human) (UniProt Q9NSD7)
# [3] = molecular target: human RXFP4 (human) (UniProt Q8TDU9)
# Chain of human RXFP4 (human) (Q8TDU9 whole entry): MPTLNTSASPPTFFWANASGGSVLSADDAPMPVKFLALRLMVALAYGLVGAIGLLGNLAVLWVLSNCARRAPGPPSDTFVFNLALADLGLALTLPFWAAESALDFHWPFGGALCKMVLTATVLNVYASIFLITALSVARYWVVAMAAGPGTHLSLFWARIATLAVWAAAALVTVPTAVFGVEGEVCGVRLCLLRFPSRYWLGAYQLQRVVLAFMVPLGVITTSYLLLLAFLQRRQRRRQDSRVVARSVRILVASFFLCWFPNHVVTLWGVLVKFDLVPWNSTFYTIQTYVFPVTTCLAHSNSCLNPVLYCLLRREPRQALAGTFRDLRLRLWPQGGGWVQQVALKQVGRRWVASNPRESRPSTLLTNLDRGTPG
# Chain of human RXFP2 (human) (Q8WXD0 whole entry): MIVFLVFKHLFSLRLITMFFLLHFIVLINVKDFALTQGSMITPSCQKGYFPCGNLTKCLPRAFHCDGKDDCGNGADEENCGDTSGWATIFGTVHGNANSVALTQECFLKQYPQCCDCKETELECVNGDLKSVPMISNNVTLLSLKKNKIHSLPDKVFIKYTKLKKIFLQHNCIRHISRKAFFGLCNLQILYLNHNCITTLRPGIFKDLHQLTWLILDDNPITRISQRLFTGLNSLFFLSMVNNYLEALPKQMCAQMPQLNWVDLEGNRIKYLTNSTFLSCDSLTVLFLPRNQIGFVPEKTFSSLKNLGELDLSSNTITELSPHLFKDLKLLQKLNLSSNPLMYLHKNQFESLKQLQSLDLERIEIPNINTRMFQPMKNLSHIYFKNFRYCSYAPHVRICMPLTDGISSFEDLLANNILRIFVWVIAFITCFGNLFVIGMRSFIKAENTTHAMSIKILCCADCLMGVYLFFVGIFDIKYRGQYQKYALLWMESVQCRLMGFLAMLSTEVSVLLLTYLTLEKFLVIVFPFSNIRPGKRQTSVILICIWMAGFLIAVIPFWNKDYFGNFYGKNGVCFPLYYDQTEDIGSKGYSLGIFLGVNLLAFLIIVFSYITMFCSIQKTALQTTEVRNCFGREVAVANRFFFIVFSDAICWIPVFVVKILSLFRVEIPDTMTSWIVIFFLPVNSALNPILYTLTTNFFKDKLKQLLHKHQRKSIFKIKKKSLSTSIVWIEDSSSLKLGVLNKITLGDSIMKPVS
# Chain of human RXFP3 (human) (Q9NSD7 whole entry): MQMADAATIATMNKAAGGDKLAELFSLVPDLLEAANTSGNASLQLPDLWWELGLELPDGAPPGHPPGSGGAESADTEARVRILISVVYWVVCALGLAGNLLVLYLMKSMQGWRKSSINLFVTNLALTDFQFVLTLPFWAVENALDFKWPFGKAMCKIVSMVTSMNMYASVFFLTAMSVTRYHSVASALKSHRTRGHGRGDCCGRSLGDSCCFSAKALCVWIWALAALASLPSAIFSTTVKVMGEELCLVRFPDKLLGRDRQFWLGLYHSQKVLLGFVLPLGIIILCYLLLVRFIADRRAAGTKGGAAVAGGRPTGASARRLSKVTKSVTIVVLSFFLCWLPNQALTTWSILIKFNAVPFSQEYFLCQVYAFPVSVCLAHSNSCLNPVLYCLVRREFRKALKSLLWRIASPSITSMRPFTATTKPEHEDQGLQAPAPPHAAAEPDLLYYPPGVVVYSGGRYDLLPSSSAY
Substance,"cAMP Assay EC50 (nM), human RXFP2/CHO-K1 cells [1]","cAMP Assay EC50 (nM), inhibition of forskolin-induced cAMP, human RXFP3/CHO-K1 cells [2]","cAMP Assay EC50 (nM), inhibition of forskolin-induced cAMP, human RXFP4/CHO-K1 cells [3]","maximal inhibition of forskolin-induced cAMP (partial agonist activity), human RXFP4/CHO-K1 cells [3]"
insulin like 3 protein-INSL3 (from UniProt P51460 106-131; P51460 21-55) (ligand),0.46 nM,,,
recombinant human relaxin 3 (from UniProt Q8WXF3 119-142; Q8WXF3 26-52) (ligand),,0.6 nM,2.8 nM,40%
